Reference: patent US20240190989A1 (BEIGENE SWITZERLAND, published 2024)

T1: human OX40 ECD-His (human, UniProt P43489 29-216)
T1 construct: also called human OX40-his; TNFRSF4(OX40)
T1 sequence: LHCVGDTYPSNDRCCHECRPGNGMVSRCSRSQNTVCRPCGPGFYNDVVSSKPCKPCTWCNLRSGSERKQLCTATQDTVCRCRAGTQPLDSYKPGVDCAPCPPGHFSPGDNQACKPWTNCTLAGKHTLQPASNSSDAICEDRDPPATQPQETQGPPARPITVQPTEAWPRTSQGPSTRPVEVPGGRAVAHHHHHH

T2: TNFRSF1A (CD120a), Sino Biological (UniProt P19438 30-211, limits assumed)
T2 construct: also called TNFRSF1A(CD12.a)
T2 sequence (looked up): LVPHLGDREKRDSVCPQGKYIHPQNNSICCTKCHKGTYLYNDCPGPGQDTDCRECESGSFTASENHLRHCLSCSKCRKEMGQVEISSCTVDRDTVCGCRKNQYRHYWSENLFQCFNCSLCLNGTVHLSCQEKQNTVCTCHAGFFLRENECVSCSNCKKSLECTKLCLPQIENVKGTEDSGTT

T3: TNFRSF1B (CD120b), Sino Biological (UniProt P20333 23-257)
T3 sequence (looked up): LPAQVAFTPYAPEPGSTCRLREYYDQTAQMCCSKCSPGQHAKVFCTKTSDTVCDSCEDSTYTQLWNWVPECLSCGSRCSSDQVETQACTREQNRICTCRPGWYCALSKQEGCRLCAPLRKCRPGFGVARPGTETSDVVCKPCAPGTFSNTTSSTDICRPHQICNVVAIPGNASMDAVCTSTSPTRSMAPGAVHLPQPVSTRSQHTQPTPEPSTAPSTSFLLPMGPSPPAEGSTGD


Key:
human CD137 ECD-mIgG2a [1] = biological target: T4, human CD137 ECD-mIgG2a (human); test: SPR, A-CEAxCD137 format
T4 construct: ECD 24-183 of huCD137 fused to mouse IgG2a Fc; also called huCD137-mIgG2a; huCD137
T4 sequence (chain, as listed by the source limits assumed): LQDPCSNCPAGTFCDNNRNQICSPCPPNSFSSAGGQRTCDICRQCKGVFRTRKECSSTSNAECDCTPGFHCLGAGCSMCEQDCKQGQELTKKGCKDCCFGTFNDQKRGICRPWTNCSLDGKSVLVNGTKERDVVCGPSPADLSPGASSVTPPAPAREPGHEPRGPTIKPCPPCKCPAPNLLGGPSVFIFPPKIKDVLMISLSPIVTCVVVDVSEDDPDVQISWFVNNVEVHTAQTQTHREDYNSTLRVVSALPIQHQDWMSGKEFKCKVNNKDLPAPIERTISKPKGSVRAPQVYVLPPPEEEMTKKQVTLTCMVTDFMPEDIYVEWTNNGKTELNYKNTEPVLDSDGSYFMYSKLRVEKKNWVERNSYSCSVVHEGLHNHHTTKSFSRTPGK
Experimental: Characterization of anti-huCD137 VH domain antibodies were made by SPR assays using BIAcore™ T-200 (GE Life Sciences). Briefly, anti-human IgG (Fc) antibody was immobilized on an activated CM5 biosensor chip (Cat.: BR100839, GE Life Sciences). Anti-huCD137 domain antibodies were flowed over the chip surface and captured by anti-human IgG (Fc) antibody. […] The equilibrium dissociation constant (KD) was calculated as the ratio koff/kₒₙ.
Affinity comparison on CD137 affinity matured variants was made by SPR assays using BIAcore™ T-200 (GE Life Sciences) and flow cytometry as described.

[2] = biological target: T5, full-length human CD137 on cells (Hut78/huCD137, HEK293 transfectants, JK-NFKB-CD137) (human, UniProt Q07011 24-255); test: flow cytometry on Hut78/huCD137 cells
T5 construct: also called native CD137; TNFRSF9
T5 sequence (Q07011 24-255 limits assumed): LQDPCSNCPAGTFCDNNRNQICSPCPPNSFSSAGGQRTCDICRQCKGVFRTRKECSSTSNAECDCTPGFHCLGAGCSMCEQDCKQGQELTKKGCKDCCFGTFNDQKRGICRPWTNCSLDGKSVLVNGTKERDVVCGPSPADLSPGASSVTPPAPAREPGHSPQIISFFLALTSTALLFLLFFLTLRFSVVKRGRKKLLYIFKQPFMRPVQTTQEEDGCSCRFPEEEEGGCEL

human CD137 ECD-mIgG2a [3] = biological target: T4, human CD137 ECD-mIgG2a; test: SPR, Format A-CEAxCD137; Format A-CEAxCD137, not Fc fusion VH
human CD137 ECD-mIgG2a [4] = biological target: T4, human CD137 ECD-mIgG2a; test: SPR, Format A-CEAxCD137
human CD40 ECD-mIgG2a = biological target: T6, human CD40 ECD-mIgG2a (human); test: antigen ELISA, antigens coated at 10 µg/ml
T6 construct: also called TNFRSF5(CD40)
T6 sequence (chain, as listed by the source limits assumed): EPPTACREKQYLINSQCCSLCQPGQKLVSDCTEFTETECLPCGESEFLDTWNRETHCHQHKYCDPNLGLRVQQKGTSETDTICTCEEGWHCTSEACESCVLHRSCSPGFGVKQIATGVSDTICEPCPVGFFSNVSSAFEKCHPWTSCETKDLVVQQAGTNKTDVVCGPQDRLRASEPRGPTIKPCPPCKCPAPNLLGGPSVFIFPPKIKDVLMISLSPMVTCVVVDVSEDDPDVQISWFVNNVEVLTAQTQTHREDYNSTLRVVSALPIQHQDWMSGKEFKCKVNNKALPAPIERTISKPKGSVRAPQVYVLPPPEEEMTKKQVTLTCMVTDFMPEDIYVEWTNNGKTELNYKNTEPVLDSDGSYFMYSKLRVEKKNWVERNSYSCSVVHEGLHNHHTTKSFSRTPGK

human OX40 ECD-His = biological target: T1, human OX40 ECD-His; test: antigen ELISA, antigens coated at 10 µg/ml
[5] = biological target: T2, TNFRSF1A (CD120a), Sino Biological; test: antigen ELISA, antigens coated at 10 µg/ml
[6] = biological target: T3, TNFRSF1B (CD120b), Sino Biological; test: antigen ELISA, antigens coated at 10 µg/ml
[7] = biological target: T5, full-length human CD137 on cells …; test: flow cytometry on Hut78/huCD137 cells: serially diluted antibody against human CD137 ligand ECD-mIgG2a, bound ligand detected with goat anti-murine IgG-APC [panel B]

Kd (human CD137 ECD-mIgG2a [1]) | EC50 [2] | Kd (human CD137 ECD-mIgG2a [3]) | Kd (human CD137 ECD-mIgG2a [4]) | binding result (human CD40 ECD-mIgG2a) | binding result (human OX40 ECD-His) | binding result [5] | binding result [6] | IC50 (read off the curve) [7] | Binder
289 nM | 0.52 µg/mL | 255 nM | – | – | – | – | – | – | A-CEAxCD137-M3 (Format A with BGA-4712-M3) (bispecific antibody, human IgG1, kappa) heavy: QVQLVQSGAEVKKPGASVKVSCKASGYIFTSYYLHWVRQAPGQGLEWIGYINPQTGKTSYAQKFQGRVTMTRDTSTSTVYMELSSLRSEDTAVYYCAREYGNYNYPLDYWGQGTLVTVSSASTKGPSVFPLAPSSKSTSGGTAALGCLVKDYFPEPVTVSWNSGALTSGVHTFPAVLQSSGLYSLSSVVTVPSSSLGTQTYICNVNHKPSNTKVDKKVEPKSCDKTHTCPPCPAPPAAGPSVFLFPPKPKDTLMISRTPEVTCVVVDVSHEDPEVKFNWYVDGVEVHNAKTKPREEQYNSTYRVVSVLTVLHQDWLNGKEYKCKVSNKALAAPIEKTISKAKGQPREPQVYTLPPSREEMTKNQVSLTCLVKGFYPSDIAVEWESNGQPENNYKTTPPVLDSDGSFFLYSKLTVDKSRWQQGNVFSCSVMHEALHNHYTQKSLSLSPGKGGGGSEVQLLESGGGLVQPGGSLRLSCAASGFTLSAEDVGWVRQAPGKGLEWVSAILDFGGSTYYAESVKGRFTISRDNAKNTLYLQMSSLRAEDTAVYYCARVVYHAGGGVTFDYWGQGTLVTVSS light: DIQMTQSPSSLSASVGDRVTITCRASENQYGYLAWYQQKPGKVPKLLIYNYKNLVEGVPSRFSGSGSGTDFTLTISSLQPEDVATYYCQHHLGTPYTFGQGTKVEIKRTVAAPSVFIFPPSDEQLKSGTASVVCLLNNFYPREAKVQWKVDNALQSGNSQESVTEQDSKDSTYSLSSTLTLSKADYEKHKVYACEVTHQGLSSPVTKSFNRGEC
649 nM | 3.23 µg/mL | – | 669 nM | – | – | – | – | – | Format A-BGA-7556 (bispecific antibody, human IgG1, kappa, also called BGA-7556 Format A-CEAxCD137) heavy: QVQLVQSGAEVKKPGASVKVSCKASGYIFTSYYLHWVRQAPGQGLEWIGYINPQTGKTSYAQKFQGRVTMTRDTSTSTVYMELSSLRSEDTAVYYCAREYGNYNYPLDYWGQGTLVTVSSASTKGPSVFPLAPSSKSTSGGTAALGCLVKDYFPEPVTVSWNSGALTSGVHTFPAVLQSSGLYSLSSVVTVPSSSLGTQTYICNVNHKPSNTKVDKKVEPKSCDKTHTCPPCPAPPAAGPSVFLFPPKPKDTLMISRTPEVTCVVVDVSHEDPEVKFNWYVDGVEVHNAKTKPREEQYNSTYRVVSVLTVLHQDWLNGKEYKCKVSNKALAAPIEKTISKAKGQPREPQVYTLPPSREEMTKNQVSLTCLVKGFYPSDIAVEWESNGQPENNYKTTPPVLDSDGSFFLYSKLTVDKSRWQQGNVFSCSVMHEALHNHYTQKSLSLSPGKGGGGSEVQLLESGGGLVQPGGSLRLSCAASGFTLSAEDVGWVRQAPGKGLEWVSAILDFGGSTYYAESVKGRFTISRDNAKNTLYLQMSSLRAEDTAVYYCARVVYHAGGGVTFDYRGQGTQVTVSS light: DIQMTQSPSSLSASVGDRVTITCRASENQYGYLAWYQQKPGKVPKLLIYNYKNLVEGVPSRFSGSGSGTDFTLTISSLQPEDVATYYCQHHLGTPYTFGQGTKVEIKRTVAAPSVFIFPPSDEQLKSGTASVVCLLNNFYPREAKVQWKVDNALQSGNSQESVTEQDSKDSTYSLSSTLTLSKADYEKHKVYACEVTHQGLSSPVTKSFNRGEC
– | – | – | – | no binding (tested: not shown) | no binding (tested: not shown) | no binding (tested: not shown) | no binding (tested: not shown) | ~0.03 µg/mL | Urelumab analog (antibody, human IgG4 S228P, kappa, V domains shown, also called Urelumab analog antibody) VH: QVQLQQWGAGLLKPSETLSLTCAVYGGSFSGYYWSWIRQSPEKGLEWIGEINHGGYVTYNPSLESRVTISVDTSKNQFSLKLSSVTAADTAVYYCARDYGPGNYDWYFDLWGRGTLVTVSS VL: EIVLTQSPATLSLSPGERATLSCRASQSVSSYLAWYQQKPGQAPRLLIYDASNRATGIPARFSGSGSGTDFTLTISSLEPEDFAVYYCQQRSNWPPALTFGGGTKVEIKR
